Results taken from patent publication US20190241657A1.

Target: human CD3epsilon/delta-Fc fusion protein (heterodimer of CD3epsilon and CD3delta extracellular domains fused to human IgG Fc) (human) (UniProt P04234)
Test: Biacore

Chain of human CD3epsilon/delta-Fc fusion protein (heterodimer of CD3epsilon and CD3delta extracellular domains fused to human IgG Fc) (human) (chain, as listed by the source mutant, chain 1 of 2): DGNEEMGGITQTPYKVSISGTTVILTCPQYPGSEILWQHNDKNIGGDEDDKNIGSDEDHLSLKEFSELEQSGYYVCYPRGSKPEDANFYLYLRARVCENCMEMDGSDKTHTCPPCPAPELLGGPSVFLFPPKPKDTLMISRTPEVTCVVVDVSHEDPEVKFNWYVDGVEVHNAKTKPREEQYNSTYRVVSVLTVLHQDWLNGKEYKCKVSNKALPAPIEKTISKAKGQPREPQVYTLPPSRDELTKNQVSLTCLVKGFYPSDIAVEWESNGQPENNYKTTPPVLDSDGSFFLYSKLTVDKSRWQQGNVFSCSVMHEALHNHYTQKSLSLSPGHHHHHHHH
Chain of human CD3epsilon/delta-Fc fusion protein (heterodimer of CD3epsilon and CD3delta extracellular domains fused to human IgG Fc) (human) (P04234 22-105, stated change not applied, chain 2 of 2): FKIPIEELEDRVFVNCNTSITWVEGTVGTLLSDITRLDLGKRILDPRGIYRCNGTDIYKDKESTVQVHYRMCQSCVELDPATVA

Kd: 9 nM
Substance: Single chain antibody DART format MGD006 (CD123xCD3 bi-specific diabody) (bispecific antibody)
